Source: patent US20170096493A1 (EISAI R AND D MANAGEMENT, published 2017)

T1: Human Notch4-NRR domain Fc fusion protein (human, UniProt Q99466 1046-1445, limits assumed)
T1 construct: Expressed in a CHO cell line, used from culture supernatant; 1 is named; also called Human Notch4-NRR Fusion Protein; not shown: Fc
T1 sequence: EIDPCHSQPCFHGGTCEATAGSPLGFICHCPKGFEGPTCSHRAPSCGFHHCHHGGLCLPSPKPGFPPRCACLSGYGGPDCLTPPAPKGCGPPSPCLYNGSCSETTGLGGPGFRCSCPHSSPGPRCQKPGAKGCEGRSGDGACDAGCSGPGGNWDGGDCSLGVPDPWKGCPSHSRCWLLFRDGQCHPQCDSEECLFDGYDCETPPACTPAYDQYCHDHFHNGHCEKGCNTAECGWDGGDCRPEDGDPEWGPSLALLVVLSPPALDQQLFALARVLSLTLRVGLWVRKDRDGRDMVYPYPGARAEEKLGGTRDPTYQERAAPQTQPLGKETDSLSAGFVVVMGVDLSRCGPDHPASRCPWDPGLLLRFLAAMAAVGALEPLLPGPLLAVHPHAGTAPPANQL


Each binder was assayed against T1, Human Notch4-NRR domain Fc fusion … (assay: SPR (Biacore) as for Table 30; Notch4-NRR-Fc captured, antibody injected; averaged, N=3).
Procedure: (§1) Kinetic analysis of further anti-Notch4 inhibitory humanized antibodies was carried out as follows. Human Notch4-NRR domain Fc fusion proteins were expressed with a CHO cell line. The antigen in the culture supernatant was captured by the anti-human Notch4 antibody fixed on a CM5 sensor chip that recognizes different epitopes of human Notch4. The humanized anti-human Notch4 antibody was then injected onto the sensor chip at various concentrations. The interaction and disassociation constants thereof were calculated according to manufacturer's instructions.

Kd	koff	kon	Binder
0.838 nM	0.00151 s⁻¹	1.83e+06 M⁻¹ s⁻¹	HA2L6(Lys-) (antibody, human IgG2, kappa, V domains shown, Humanized IgG2 (V234A, G237A)/κ; also called No. 40) VH: EVQLVESGGGLVQPGGSLRLSCAASGFTFSSYGMSWVRQAPGKGLELVSTINSNGGRTYYANSVKGRFTISRDNSKNTLYLQMGSLRAEDMAVYYCARDQGFAYWGQGTLVTVSS VL: EIVMTQSPATLSVSPGERATLSCKASQDVGTAVAWYQQKPGQSPRLLIYWASTRHTGIPARFSGSGSGTEFTLTISSLQSEDFAVYFCQQYSSYPWTFGQGTKVEIKR
0.766 nM	0.00114 s⁻¹	1.51e+06 M⁻¹ s⁻¹	HK3L6(Lys-) (antibody, human IgG2, kappa, V domains shown, Humanized IgG2 (V234A, G237A)/κ; also called No. 42) VH: EVQLVESGGGLVQPGGSLRLSCAASGFTFSSYGMSWVRQAPGKGLELVATINSNGGRTYYPDSVKGRFTISRDNSKNTLYLQMGSLKAEDMAVYYCARDQGFAYWGQGTLVTVSS VL: EIVMTQSPATLSVSPGERATLSCKASQDVGTAVAWYQQKPGQSPRLLIYWASTRHTGIPARFSGSGSGTEFTLTISSLQSEDFAVYFCQQYSSYPWTFGQGTKVEIKR

What follows are binders tested against T1, Human Notch4-NRR domain Fc fusion … (assay: SPR (Biacore) as for Table 30; Notch4-NRR-Fc captured, antibody injected; averaged, N=6).
Procedure: as §1

Kd	koff	kon	Binder
0.601 nM	0.00102 s⁻¹	1.72e+06 M⁻¹ s⁻¹	HK3L5 (antibody, human IgG2, kappa, Humanized IgG2 (V234A, G237A)/κ; also called No. 20) heavy: EVQLVESGGGLVQPGGSLRLSCAASGFTFSSYGMSWVRQAPGKGLELVATINSNGGRTYYPDSVKGRFTISRDNSKNTLYLQMGSLKAEDMAVYYCARDQGFAYWGQGTLVTVSSASTKGPSVFPLAPCSRSTSESTAALGCLVKDYFPEPVTVSWNSGALTSGVHTFPAVLQSSGLYSLSSVVTVPSSNFGTQTYTCNVDHKPSNTKVDKTVERKCCVECPPCPAPPAAAPSVFLFPPKPKDTLMISRTPEVTCVVVDVSHEDPEVQFNWYVDGVEVHNAKTKPREEQFNSTFRVVSVLTVVHQDWLNGKEYKCKVSNKGLPAPIEKTISKTKGQPREPQVYTLPPSREEMTKNQVSLTCLVKGFYPSDIAVEWESNGQPENNYKTTPPMLDSDGSFFLYSKLTVDKSRWQQGNVFSCSVMHEALHNHYTQKSLSLSPGK light: DIQMTQSPSSLSASVGDRVTITCKASQDVGTAVAWYQQKPGKSPKLLIYWASTRHTGVPSRFSGSGSGTDFTLTISSLQPEDVATYFCQQYSSYPWTFGQGTKVEIKRTVAAPSVFIFPPSDEQLKSGTASVVCLLNNFYPREAKVQWKVDNALQSGNSQESVTEQDSKDSTYSLSSTLTLSKADYEKHKVYACEVTHQGLSSPVTKSFNRGEC

Each binder was assayed against T1, Human Notch4-NRR domain Fc fusion … (assay: SPR (Biacore) as for Table 30; Notch4-NRR-Fc captured, antibody injected; averaged, N=2).
Procedure: as §1

Kd	koff	kon	Binder
7.2 nM	0.0452 s⁻¹	6.36e+06 M⁻¹ s⁻¹	HA1L5 (antibody, human IgG2, kappa, V domains shown, Humanized IgG2 (V234A, G237A)/κ; also called No. 25) VH: EVQLVESGGGLVQPGGSLRLSCAASGFTFSSYGMSWVRQAPGKGLEYVSTINSNGGRTYYANSVKGRFTISRDNSKNTLYLQMGSLRAEDMAVYYCARDQGFAYWGQGTLVTVSS VL: DIQMTQSPSSLSASVGDRVTITCKASQDVGTAVAWYQQKPGKSPKLLIYWASTRHTGVPSRFSGSGSGTDFTLTISSLQPEDVATYFCQQYSSYPWTFGQGTKVEIKR
18.6 nM	0.0122 s⁻¹	649000 M⁻¹ s⁻¹	HA1L2 (antibody, human IgG2, kappa, V domains shown, Humanized IgG2 (V234A, G237A)/κ; also called No. 22) VH: EVQLVESGGGLVQPGGSLRLSCAASGFTFSSYGMSWVRQAPGKGLEYVSTINSNGGRTYYANSVKGRFTISRDNSKNTLYLQMGSLRAEDMAVYYCARDQGFAYWGQGTLVTVSS VL: DIQMTQSPSSLSASVGDRVTITCKASQDVGTAVAWYQQKPGKVPKLLIYWASTRHTGVPSRFSGSGSGTDFTLTISSLQPEDVATYFCQQYSSYPWTFGQGTKVEIKR
4.34 nM	0.0118 s⁻¹	2.78e+06 M⁻¹ s⁻¹	HK1L4 (antibody, human IgG2, kappa, V domains shown, Humanized IgG2 (V234A, G237A)/κ; also called No. 9) VH: EVQLVESGGGLVQPGGSLRLSCAASGFTFSSYGMSWVRQAPGKGLEYVSTINSNGGRTYYPDSVKGRFTISRDNSKNTLYLQMGSLRAEDMAVYYCARDQGFAYWGQGTLVTVSS VL: EIVMTQSPATLSVSPGERATLSCKASQDVGTAVAWYQQKPGQAPRLLIYWASTRHTGIPARFSGSGSGTEFTLTISSLQSEDFAVYFCQQYSSYPWTFGQGTKVEIKR
4.87 nM	0.0196 s⁻¹	3.71e+06 M⁻¹ s⁻¹	HK1L3 (antibody, human IgG2, kappa, V domains shown, Humanized IgG2 (V234A, G237A)/κ; also called No. 8) VH: EVQLVESGGGLVQPGGSLRLSCAASGFTFSSYGMSWVRQAPGKGLEYVSTINSNGGRTYYPDSVKGRFTISRDNSKNTLYLQMGSLRAEDMAVYYCARDQGFAYWGQGTLVTVSS VL: EIVMTQSPATLSVSPGERATLSCKASQDVGTAVAWYQQKPGQAPRLLIYWASTRHTGIPARFSGSGSGTEFTLTISSLQSEDFAVYYCQQYSSYPWTFGQGTKVEIKR

What follows are binders tested against T1, Human Notch4-NRR domain Fc fusion … (assay: SPR (Biacore) as for Table 30; Notch4-NRR-Fc captured, antibody injected; averaged, N=4).
Procedure: as §1

Kd	koff	kon	Binder
1.38 nM	0.00157 s⁻¹	1.23e+06 M⁻¹ s⁻¹	HK2L2 (antibody, human IgG2, kappa, V domains shown, Humanized IgG2 (V234A, G237A)/κ; also called No. 12) VH: EVQLVESGGGLVQPGGSLRLSCAASGFTFSSYGMSWVRQAPGKGLELVSTINSNGGRTYYPDSVKGRFTISRDNSKNTLYLQMGSLRAEDMAVYYCARDQGFAYWGQGTLVTVSS VL: DIQMTQSPSSLSASVGDRVTITCKASQDVGTAVAWYQQKPGKVPKLLIYWASTRHTGVPSRFSGSGSGTDFTLTISSLQPEDVATYFCQQYSSYPWTFGQGTKVEIKR
1.41 nM	0.00222 s⁻¹	1.63e+06 M⁻¹ s⁻¹	HA2L2 (antibody, human IgG2, kappa, V domains shown, Humanized IgG2 (V234A, G237A)/κ; also called No. 27) VH: EVQLVESGGGLVQPGGSLRLSCAASGFTFSSYGMSWVRQAPGKGLELVSTINSNGGRTYYANSVKGRFTISRDNSKNTLYLQMGSLRAEDMAVYYCARDQGFAYWGQGTLVTVSS VL: DIQMTQSPSSLSASVGDRVTITCKASQDVGTAVAWYQQKPGKVPKLLIYWASTRHTGVPSRFSGSGSGTDFTLTISSLQPEDVATYFCQQYSSYPWTFGQGTKVEIKR
1.76 nM	0.00133 s⁻¹	783000 M⁻¹ s⁻¹	HK3L1 (antibody, human IgG2, kappa, V domains shown, Humanized IgG2 (V234A, G237A)/κ; also called No. 16) VH: EVQLVESGGGLVQPGGSLRLSCAASGFTFSSYGMSWVRQAPGKGLELVATINSNGGRTYYPDSVKGRFTISRDNSKNTLYLQMGSLKAEDMAVYYCARDQGFAYWGQGTLVTVSS VL: DIQMTQSPSSLSASVGDRVTITCKASQDVGTAVAWYQQKPGKVPKLLIYWASTRHTGVPSRFSGSGSGTDFTLTISSLQPEDVATYYCQQYSSYPWTFGQGTKVEIKR
1.84 nM	0.0016 s⁻¹	875000 M⁻¹ s⁻¹	HK2L1 (antibody, human IgG2, kappa, V domains shown, Humanized IgG2 (V234A, G237A)/κ; also called No. 11) VH: EVQLVESGGGLVQPGGSLRLSCAASGFTFSSYGMSWVRQAPGKGLELVSTINSNGGRTYYPDSVKGRFTISRDNSKNTLYLQMGSLRAEDMAVYYCARDQGFAYWGQGTLVTVSS VL: DIQMTQSPSSLSASVGDRVTITCKASQDVGTAVAWYQQKPGKVPKLLIYWASTRHTGVPSRFSGSGSGTDFTLTISSLQPEDVATYYCQQYSSYPWTFGQGTKVEIKR
1.29 nM	0.00145 s⁻¹	1.13e+06 M⁻¹ s⁻¹	HK3L2 (antibody, human IgG2, kappa, V domains shown, Humanized IgG2 (V234A, G237A)/κ; also called No. 17) VH: EVQLVESGGGLVQPGGSLRLSCAASGFTFSSYGMSWVRQAPGKGLELVATINSNGGRTYYPDSVKGRFTISRDNSKNTLYLQMGSLKAEDMAVYYCARDQGFAYWGQGTLVTVSS VL: DIQMTQSPSSLSASVGDRVTITCKASQDVGTAVAWYQQKPGKVPKLLIYWASTRHTGVPSRFSGSGSGTDFTLTISSLQPEDVATYFCQQYSSYPWTFGQGTKVEIKR
1.76 nM	0.00166 s⁻¹	949000 M⁻¹ s⁻¹	HA2L1 (antibody, human IgG2, kappa, V domains shown, Humanized IgG2 (V234A, G237A)/κ; also called No. 26) VH: EVQLVESGGGLVQPGGSLRLSCAASGFTFSSYGMSWVRQAPGKGLELVSTINSNGGRTYYANSVKGRFTISRDNSKNTLYLQMGSLRAEDMAVYYCARDQGFAYWGQGTLVTVSS VL: DIQMTQSPSSLSASVGDRVTITCKASQDVGTAVAWYQQKPGKVPKLLIYWASTRHTGVPSRFSGSGSGTDFTLTISSLQPEDVATYYCQQYSSYPWTFGQGTKVEIKR
